Consider one molecule from paper PMC3670040, “Structure of Lipid Kinase p110β/p85β Elucidates an Unusual SH2-Domain-Mediated Inhibitory Mechanism” (Molecular Cell, 2011).

This assay addresses T1, Mouse His6-p110β(1-1064) (mouse, UniProt Q8BTI9 1-1064).
T1 construct: p110β catalytic subunit of class IA PI3K, mouse, residues 1-1064 (full length); N-terminal extension from pFastBac-HTb printed as [residues removed]; (His6 tag and TEV site); this molecule is used there; also called full-length mouse p110β; p110β catalytic subunit; source: Sf9 cells, recombinant baculoviruses, coinfected with the regulatory subunit; complex purified (HisTrap, Q-Sepharose, …)
Nature of the assay: crystal structure; mouse His6-p110β(1-1064)/p85β-icSH2(423-722) complex at 4 mg/ml with 20 mM sodium phenyl phosphate and 150 μM GDC0941; 12% PEG 3350, 0.1 M potassium citrate pH 6, 0.4 M lithium sulfate, 22°C; 3.3 Å; one 1:1 complex in the asymmetric unit. As to conditions: both partners purified.

T1 sequence (Q8BTI9 whole entry, the tested form may be a part): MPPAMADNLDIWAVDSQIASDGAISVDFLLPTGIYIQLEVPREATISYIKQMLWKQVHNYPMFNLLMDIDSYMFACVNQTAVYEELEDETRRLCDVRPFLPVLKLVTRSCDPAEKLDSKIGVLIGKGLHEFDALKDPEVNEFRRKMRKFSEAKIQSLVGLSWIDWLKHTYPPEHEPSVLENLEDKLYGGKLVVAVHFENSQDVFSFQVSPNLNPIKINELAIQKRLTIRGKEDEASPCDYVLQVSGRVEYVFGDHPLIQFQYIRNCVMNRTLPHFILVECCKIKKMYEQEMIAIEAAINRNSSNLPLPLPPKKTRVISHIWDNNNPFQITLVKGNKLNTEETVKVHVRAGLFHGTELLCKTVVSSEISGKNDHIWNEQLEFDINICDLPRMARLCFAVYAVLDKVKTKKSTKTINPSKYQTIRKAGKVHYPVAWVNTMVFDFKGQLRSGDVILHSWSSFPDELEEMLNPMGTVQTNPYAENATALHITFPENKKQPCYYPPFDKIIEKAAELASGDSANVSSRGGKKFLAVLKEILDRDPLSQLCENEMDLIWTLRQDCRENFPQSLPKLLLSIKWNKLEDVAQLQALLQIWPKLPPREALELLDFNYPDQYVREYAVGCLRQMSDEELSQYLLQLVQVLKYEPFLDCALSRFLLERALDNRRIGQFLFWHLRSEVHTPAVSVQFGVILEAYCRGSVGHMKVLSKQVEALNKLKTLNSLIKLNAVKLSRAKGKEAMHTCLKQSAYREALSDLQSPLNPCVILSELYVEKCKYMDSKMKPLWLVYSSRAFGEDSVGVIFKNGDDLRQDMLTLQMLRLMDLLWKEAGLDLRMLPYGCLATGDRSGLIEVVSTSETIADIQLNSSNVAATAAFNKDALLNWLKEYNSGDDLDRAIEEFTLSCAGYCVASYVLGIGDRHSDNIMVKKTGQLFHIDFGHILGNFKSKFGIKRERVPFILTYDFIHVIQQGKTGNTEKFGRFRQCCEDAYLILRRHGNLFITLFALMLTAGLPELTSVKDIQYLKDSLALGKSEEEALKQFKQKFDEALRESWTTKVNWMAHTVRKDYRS

B1: mouse p85β-icSH2 (residues 423–722) (domain or fragment, UniProt O08908 423-722, looked up)
chain: QQDQVVKEDSIEAVGAQLKVYHQQYQDKSREYDQLYEEYTRTSQELQMKRTAIEAFNETIKIFEEQGQTQEKCSKEYLERFRREGNEKEMQRILLNSERLKSRIAEIHESRTKLEQDLRAQASDNREIDKRMNSLKPDLMQLRKIRDQYLVWLTQKGARQRKINEWLGIKNETEDQYSLMEDEDALPHHEERTWYVGKINRTQAEEMLSGKRDGTFLIRESSQRGCYACSVVVDGDTKHCVIYRTATGFGFAEPYNLYGSLKELVLHYQHASLVQHNDALTVTLAHPVRAPGPGPPSAAR
notes: No tag (pFastBac1); also called p85-icSH2; source: Sf9 cells, recombinant baculoviruses, coinfected with p110β; complex purified (HisTrap, Q-Sepharose, heparin, gel filtration)
Turning to B1, the binding result is on record as “binds”.
